Laboratory results reported in patent US20200216495A1 (ADRX, published 2020).
Several values for one entry are separate records, joined by “and”; a condition that tells them apart may be missing. Equal entries are not always repeated. Square brackets hold non-standard residues; d marks the D form. Ends that are not written are not given here. dCit = NC(=O)NCCC[C@@H](N)C(=O)O; dNle = CCCC[C@@H](N)C(=O)O

The binders below were run against Tau40 P301L protein (human) (assay: cell-based or functional assay).

IC50, Tau40 assay (ThT)	Binder
540 nM	[dW][dR][dL][dR][dI][dM][dW] [wrlrimw (PEPTIDE ID NO: 452)]
930 nM	[dL][dK][dI][dK][dI][dH][dY] [lkikihy (PEPTIDE ID NO: 233)]
1000 nM	[dL][dK][dI][dR][dI][dH][dL][dH] [lkirihlh (PEPTIDE ID NO: 240)]
1080 nM and 1100 nM	[dF][dK][dL][dK][dI][dK][dW] [fklkikw (PEPTIDE ID NO: 132)]
510 nM	[dR][dL][dK][dI][dR][dI][dH][dY] [rlkirihy (PEPTIDE ID NO: 451)]
910 nM	[dF][dR][dL][dK][dV][dR][dW][dW] [frlkvrww (PEPTIDE ID NO: 231)]
1050 nM	[dF][dK][dL][dK][dL][dR][dW] [fklklrw (PEPTIDE ID NO: 413)]
1010 nM	[dL][dK][dL][dR][dI][dR][dH][dH] [lklrirhh (PEPTIDE ID NO: 415)]
860 nM	[dL][dK][dI][dL][dI][dH][dY][dH] [lkilihyh (PEPTIDE ID NO: 223)]
880 nM	[dW][dR][dF][dK][dV][dR][dW] [wrfkvrw (PEPTIDE ID NO: 226)]
860 nM	[dW][dR][dL][dK][dV][dR][dW][dH] [wrlkvrwh (PEPTIDE ID NO: 222)]
1040 nM	[dL][dK][dI][dR][dI][dH][dY] [lkirihy (PEPTIDE ID NO: 245)]
1010 nM	[dL][dK][dL][dH][dL][dH][dF][dH] [lklhlhfh (PEPTIDE ID NO: 434)]
1080 nM	[dW][dR][dL][dK][dV][dA][dW] [wrlkvaw (PEPTIDE ID NO: 248)]
940 nM	[dW][dW][dL][dR][dI][dH][dW] [wwlrihw (PEPTIDE ID NO: 425)]
970 nM	[dL][dK][dI][dW][dI][dY][dY][dH] [lkiwiyyh (PEPTIDE ID NO: 237)]
910 nM	[dF][dK][dI][dR][dI][dH][dY][dF] [fkirihyf (PEPTIDE ID NO: 232)]
1090 nM	[dL][dK][dI][dK][dL][dR][dH][dY] [lkiklrhy (PEPTIDE ID NO: 144)]
940 nM	[dT][dL][dK][dI][dR][dI][dH][dY] [tlkirihy (PEPTIDE ID NO: 235)]
930 nM	[dW][dW][dR][dL][dK][dV][dR][dW] [wwrlkvrw (PEPTIDE ID NO: 234)]
920 nM	[dK][dL][dK][dL][dR][dW][dW] [klklrww (PEPTIDE ID NO: 448)]
1040 nM	[dW][dR][dM][dR][dI][dH][dW] [wrmrihw (PEPTIDE ID NO: 246)]

IC50, Tau40 assay (ThT)	Binder
580 nM	[dW][dR][dL][dR][dI][dH][dM] [wrlrihm (PEPTIDE ID NO: 453)]
960 nM	G[dL][dK][dI][dR][dI][dH][dY] [glkirihy (PEPTIDE ID NO: 236)]
880 nM	[dR][dR][dL][dK][dV][dR][dW][dW] [rrlkvrww (PEPTIDE ID NO: 225)]
970 nM	[dL][dR][dI][dR][dL][dH][dY][dH] [lrirlhyh (PEPTIDE ID NO: 420)]
870 nM	[dR][dL][dK][dV][dR][dW][dW][dW] [rlkvrwww (PEPTIDE ID NO: 224)]
900 nM	[dE][dW][dR][dL][dK][dV][dR][dW] [ewrlkvrw (PEPTIDE ID NO: 229)]
910 nM	[dW][dR][dL][dK][dV][dR][dW][dR] [wrlkvrwr (PEPTIDE ID NO: 230)]
1030 nM	[dL][dK][dI][dR][dI][dCit][dY] [lkirizy (PEPTIDE ID NO: 244)]
850 nM	[dL][dR][dL][dK][dV][dR][dW][dW] [lrlkvrww (PEPTIDE ID NO: 221)]
1010 nM	[dW][dR][dL][dK][dE][dR][dW][dW] [wrlkerww (PEPTIDE ID NO: 241)]
1070 nM	[dF][dK][dL][dR][dL][dR][dH][dW] [fklrlrhw (PEPTIDE ID NO: 123)]
890 nM	[dR][dK][dI][dR][dI][dH][dY][dH] [rkirihyh (PEPTIDE ID NO: 227)]
1010 nM	[dM][dR][dL][dR][dI][dH][dW] [mrlrihw (PEPTIDE ID NO: 242)]
930 nM and 980 nM	[dL][dQ][dF][dD][dL][dQ][dY][dF] [lqfdlqyf (PEPTIDE ID NO: 142)]
1000 nM	[dL][dR][dI][dR][dI][dH][dY][dH] [lririhyh (PEPTIDE ID NO: 239)]
940 nM	[dW][dK][dL][dK][dL][dW][dW][dW] [wklklwww (PEPTIDE ID NO: 14)]
1040 nM	[dF][dL][dK][dI][dR][dI][dH][dY] [flkirihy (PEPTIDE ID NO: 247)]
970 nM	[dL][dR][dI][dK][dI][dR][dF][dH] [lrikirfh (PEPTIDE ID NO: 421)]
650 nM	[dL][dK][dI][dR][dI][dH][dY][dL] [lkirihyl (PEPTIDE ID NO: 193)]
900 nM	[dL][dK][dI][dR][dI][dR][dF][dH] [lkirirfh (PEPTIDE ID NO: 414)]
1010 nM	[dK][dL][dK][dI][dR][dI][dH][dY] [klkirihy (PEPTIDE ID NO: 243)]
1000 nM	[dW][dR][dL][dR][dV][dR][dW][dW] [wrlrvrww (PEPTIDE ID NO: 238)]

What follows are binders tested against Ac-VQIINK-NH2 (SEQ ID NO: 23) (N-terminal acetyl (Ac); C-terminal amide (NH2)) (assay: cell-based or functional assay).

VQIINK Inhibition IC50 [µm]	Binder
0.67	[dL][dR][dL][dK][dV][dR][dW][dW] [lrlkvrww]
0.79	[dW][dR][dL][dR][dV][dR][dW][dW] [wrlrvrww]
0.76	[dF][dR][dL][dK][dV][dR][dW][dW] [frlkvrww]
0.93	[dL][dR][dL][dK][dV][dR][dW][dL] [lrlkvrwl]
0.41	[dW][dN][dL][dK][dV][dR][dW] [wnlkvrw]
0.76	[dL][dK][dI][dR][dI][dCit][dY] [lkirizy]
0.96	[dH][dY][dH][dI][dR][dI][dK][dL] [hyhirikl]
0.69	[dF][dR][dL][dK][dI][dR][dW] [frlkirw]
0.94	[dW][dK][dV][dQ][dV][dR][dL][dW] [wkvqvrlw]
0.82	[dF][dR][dI][dR][dI][dH][dH][dW] [fririhhw]
0.65	[dL][dK][dI][dE][dI][dH][dY] [lkieihy]
0.17	[dL][dK][dI][dY][dI][dH][dY] [lkiyihy]
0.75	[dW][dK][dV][dK][dI][dQ][dY][dH] [wkvkiqyh]
0.77	[dL][dE][dI][dR][dI][dH][dY] [leirihy]
0.26	[dL][dK][dI][dNle][dI][dH][dY] [lkiuihy]
0.26	[dW][dE][dL][dK][dV][dR][dW] [welkvrw]
